Marks after values point to notes of the source that are not given here. Sox = metal binding amino acid

This passage reports Km and Vmax results from patent US7892775B2, “Fluorescence assay for kinase activity” (Massachusetts Institute of Technology, priority 2003, dated 2011).

One test concerns the target Protein Kinase Cα (Homo sapiens, UniProt P17252). The following applies: 20 mM HEPES pH 7.4, 10 mM MgCl2, 0.3 mM CaCl2, 1 mM ATP, 0.7 nM PKCα, 30° C.; average of four Hanes plots. On the procedure:
PKC: On the day of the assay, a 1 μl aliquot of Protein Kinase Cα (Human, Recombinant, Calbiochem) was diluted with 20 μl of solution 4 and stored on ice. A typical reaction contained solution 4 (84 μl), solution 6 (19 μl), solution 8 (5 μl), solution 7 (1 μl), and enzyme working stock (1 μl). An appropriate volume of substrate stock solution was added to begin the reaction.
Fluorescence experiments were performed on a Fluoromax 3 from Jobin Yvon. 5 nm emission and excitation slit widths were used. For all experiments, an excitation wavelength of 360 nm was used. Enzyme assays were performed by monitoring emission at 485 nm.
To solve for Km and Vmax for this reaction, determination of the initial rate of product formation from the increase in fluorescence intensity is necessary. With this sensor, a correction for the decrease in fluorescence intensity due to the starting material being consumed is needed to determine the rate of product formation from the initial slope. The fluorescence intensity at any given point can be determined from the following equation: I(t)=fSS(t)+fPP(t) (1) where I(t) is the fluorescence intensity, S(t) is the amount of substrate in μM, P(t) is the amount of product in μM, fS is the fluorescence intensity per μM) of substrate, and fP is fluorescence intensity per μM of product. The amount of substrate and product at any given point are related by: S(t)+P(t)=S0 (2) where S0 is the initial amount of substrate. Substitution of (2) into (I) followed by rearrangement, yields:
The initial slope of the reaction, dI(t)/dt, was measured within the first 5% of substrate turnover. The constants fP and fS were calculated from the slope of a line of fluorescence intensity versus concentration of P and S, respectively. A linear fit of a Hanes plot ([…]) was used to find Km and Vmax.

In test [1] the target is T1, cAMP-dependent Protein Kinase (Catalytic Subunit) (Mus musculus, UniProt P05132).
T1 construct: purchased Calbiochem
In words: Continuous fluorescence kinase assay, kinetic constants of Sox peptide substrate with PKA. As to conditions: 20 mM HEPES pH 7.4, 10 mM MgCl2, 1 mM ATP, 1 mM DTT, 40 units PKA, 30° C.; average of four Hanes plots. Type of test: biochemical. On the procedure:
A typical reaction contained solution 5 (90 μl), solution 6 (20 μl), solution 7 (1 μl) and an appropriate volume of substrate stock solution. Enzyme working stock (1 μl) was added to begin the reaction.
5 nm emission and excitation slit widths were used.
Substitution of (2) into (I) followed by rearrangement, yields: […]

Broadly, the Km is the substrate concentration at which the rate is half of its maximum. In the case of “Ac-Sox-Pro-Gly-Ser-Phe-Arg-Arg-Arg-NH2 [Ac-Sox-PGS*FRRR-NH2]”, at Protein Kinase Cα, the Km was 8.6 ± 2.9 µM and the Vmax is on record as 5.9 ± 1.9^d μmol/min/mg.

As for “Ac-Leu-Arg-Arg-Ala-Ser-Leu-Pro-Sox-NH2 (Ac-LRRASLP-{Sox-NH2}) [Ac-LRRAS*LP-Sox-NH2, Sox-containing peptide substrate (sensor) for PKA]”, in test [1], the Km is 1.8 ± 0.5 µM and the Vmax was 3.7 ± 1.6^f μmol/min/mg.

In the case of “Ac-Sox-Pro-Gly-Thr-Phe-Arg-Arg-Arg-NH2 ({Ac-Sox}-PGTFRRR-NH2) [Ac-Sox-PGT*FRRR-NH2]”, in the test with Protein Kinase Cα, the Km was found to be 23 ± 3 µM and the Vmax is on record as 2.3 ± 0.6^d μmol/min/mg.
